Measured values reported in US20240240159A1.
Values belong to the substance of their own block, whether it stands above or below them.

How the values were obtained:
Experiment in all cases: cell-based or functional assay
[1] = biological target: 341BP NTproBNP epitope-grafted FAD-GDH
[2] = biological target: 358BP NTproBNP epitope-grafted FAD-GDH
[3] = biological target: Purified NTproBNP antigen (UniProt P16860)
[4] = biological target: 358HNL-H1 epitope-grafted FAD-GDH
[5] = biological target: 358HNL-H3 epitope-grafted FAD-GDH
Sequence of 358HNL-H3 epitope-grafted FAD-GDH (chain, as listed by the source): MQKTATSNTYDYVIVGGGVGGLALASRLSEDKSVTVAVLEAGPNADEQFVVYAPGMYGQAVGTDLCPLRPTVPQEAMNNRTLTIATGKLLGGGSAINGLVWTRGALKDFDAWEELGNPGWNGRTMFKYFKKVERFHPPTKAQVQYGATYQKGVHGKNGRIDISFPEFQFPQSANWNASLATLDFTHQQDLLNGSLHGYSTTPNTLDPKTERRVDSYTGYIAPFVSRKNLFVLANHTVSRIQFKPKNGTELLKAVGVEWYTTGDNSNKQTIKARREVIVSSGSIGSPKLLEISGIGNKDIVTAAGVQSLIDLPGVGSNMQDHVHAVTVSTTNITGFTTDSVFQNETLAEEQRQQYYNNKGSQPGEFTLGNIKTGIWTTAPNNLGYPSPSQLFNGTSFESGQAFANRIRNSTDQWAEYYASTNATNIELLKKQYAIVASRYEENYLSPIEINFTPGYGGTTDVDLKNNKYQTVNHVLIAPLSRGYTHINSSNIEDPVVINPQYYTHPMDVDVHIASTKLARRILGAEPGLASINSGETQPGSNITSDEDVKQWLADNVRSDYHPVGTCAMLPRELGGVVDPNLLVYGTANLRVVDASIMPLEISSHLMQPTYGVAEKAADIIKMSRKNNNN

[6] = biological target: 341V5 epitope-grafted FAD-GDH
[7] = biological target: V5 peptide, Sigma (cat #V7754-4MG)

Sequence of 358BP NTproBNP epitope-grafted FAD-GDH (chain, as listed by the source): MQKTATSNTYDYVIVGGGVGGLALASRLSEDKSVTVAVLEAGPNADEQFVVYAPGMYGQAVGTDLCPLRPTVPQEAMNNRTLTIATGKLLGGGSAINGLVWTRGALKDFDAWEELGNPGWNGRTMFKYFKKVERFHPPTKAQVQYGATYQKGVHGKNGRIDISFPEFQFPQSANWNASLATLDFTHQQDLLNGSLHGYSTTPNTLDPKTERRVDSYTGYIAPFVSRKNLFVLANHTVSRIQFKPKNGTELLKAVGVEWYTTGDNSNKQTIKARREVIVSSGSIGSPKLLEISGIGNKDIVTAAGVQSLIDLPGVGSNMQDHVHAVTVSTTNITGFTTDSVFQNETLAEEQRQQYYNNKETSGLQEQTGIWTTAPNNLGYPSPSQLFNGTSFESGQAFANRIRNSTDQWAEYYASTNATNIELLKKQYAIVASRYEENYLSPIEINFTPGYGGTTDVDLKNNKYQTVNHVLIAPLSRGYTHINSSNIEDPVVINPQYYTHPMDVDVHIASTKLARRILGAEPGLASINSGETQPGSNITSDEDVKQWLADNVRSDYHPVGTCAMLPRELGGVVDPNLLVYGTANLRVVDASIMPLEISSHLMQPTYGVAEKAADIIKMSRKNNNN
Sequence of UniProt P16860 (P16860 27-134 limits assumed): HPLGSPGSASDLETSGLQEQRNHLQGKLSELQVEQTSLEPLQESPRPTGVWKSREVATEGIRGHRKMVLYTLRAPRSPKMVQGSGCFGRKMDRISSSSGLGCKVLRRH
Sequence of 358HNL-H1 epitope-grafted FAD-GDH (chain, as listed by the source): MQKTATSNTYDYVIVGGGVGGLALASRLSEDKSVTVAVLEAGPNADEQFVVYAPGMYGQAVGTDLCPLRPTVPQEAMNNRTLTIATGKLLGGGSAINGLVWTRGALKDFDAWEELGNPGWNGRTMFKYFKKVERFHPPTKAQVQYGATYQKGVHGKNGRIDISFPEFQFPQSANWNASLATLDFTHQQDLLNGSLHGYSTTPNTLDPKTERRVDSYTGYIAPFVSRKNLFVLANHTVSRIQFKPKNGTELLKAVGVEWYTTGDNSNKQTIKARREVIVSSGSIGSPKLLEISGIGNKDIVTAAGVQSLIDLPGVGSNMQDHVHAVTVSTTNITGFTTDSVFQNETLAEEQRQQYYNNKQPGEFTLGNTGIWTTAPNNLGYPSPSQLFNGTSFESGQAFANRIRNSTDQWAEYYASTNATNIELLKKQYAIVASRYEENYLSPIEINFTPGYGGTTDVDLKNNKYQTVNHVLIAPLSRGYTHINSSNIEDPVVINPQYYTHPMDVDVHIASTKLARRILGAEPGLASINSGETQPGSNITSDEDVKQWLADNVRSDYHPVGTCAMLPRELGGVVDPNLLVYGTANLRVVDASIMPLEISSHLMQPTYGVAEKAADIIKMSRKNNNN
Sequence of 341BP NTproBNP epitope-grafted FAD-GDH (chain, as listed by the source): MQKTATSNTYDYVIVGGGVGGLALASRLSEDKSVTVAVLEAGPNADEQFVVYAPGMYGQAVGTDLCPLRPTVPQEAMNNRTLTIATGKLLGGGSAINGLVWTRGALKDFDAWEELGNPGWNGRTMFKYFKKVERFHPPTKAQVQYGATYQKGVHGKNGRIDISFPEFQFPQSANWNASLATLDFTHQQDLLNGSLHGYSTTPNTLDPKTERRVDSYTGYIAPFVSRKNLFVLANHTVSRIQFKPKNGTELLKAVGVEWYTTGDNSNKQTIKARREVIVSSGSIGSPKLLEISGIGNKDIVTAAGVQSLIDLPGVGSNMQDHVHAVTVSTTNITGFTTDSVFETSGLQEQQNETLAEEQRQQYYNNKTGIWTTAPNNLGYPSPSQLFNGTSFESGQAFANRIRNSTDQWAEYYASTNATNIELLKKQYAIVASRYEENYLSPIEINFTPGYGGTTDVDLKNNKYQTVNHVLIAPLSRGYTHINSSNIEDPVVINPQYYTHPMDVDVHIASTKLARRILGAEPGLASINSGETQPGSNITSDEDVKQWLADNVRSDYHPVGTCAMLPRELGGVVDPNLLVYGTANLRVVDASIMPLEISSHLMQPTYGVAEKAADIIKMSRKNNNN

percent inhibition of GDH activity, 500 nM antibody [1]: 25%
percent inhibition of GDH activity, 500 nM antibody [2]: 7%
percent inhibition of 341BP / 358BP by 500 nM antibody in the presence of 5 µM NTproBNP antigen [3]: 0%
Substance: Mouse α-NTproBNP antibody, Biorad (cat #MCA2641)

percent inhibition of GDH activity, 500 nM antibody [2]: 7%
percent inhibition by 500 nM Novus antibody in the presence of 5 µM NTproBNP antigen [3]: 0%
Substance: Mouse α-NTproBNP antibody, Novus (cat #NB200-439)

percent inhibition of GDH activity, 25 nM antibody [4]: 20%
percent inhibition of GDH activity, 25 nM antibody [5]: 60%
Substance: Rabbit α-HNL mAb, Abcam (cat #ab206427) (antibody)

Substance: α-V5 antibody, mouse monoclonal, Sigma (cat #V8012-50UG)
percent inhibition of GDH activity, 300 nM antibody [6]: 50%
percent inhibition of 341V5 by 300 nM α-V5 antibody in the presence of 3 µM V5 peptide [7]: 9%
